Measurements published in patent US20040176301A1 (CYCLACEL, published 2004).
Read-outs that look alike come from different tables or passages of the source. Ends that are not written are not given here.

B1: TSMTDFYHSKRR-NH2 (peptide)
peptide: TSMTDFYHSKRR-NH2
B2: p21 (148-159) TDFYHSKRRLIF-NH2 (peptide)
peptide: TDFYHSKRRLIF-NH2
B3: p21 (150-159) FYHSKRRLIF-NH2 (peptide)
peptide: FYHSKRRLIF-NH2
B4: FYHSKRRLI-NH2 (peptide)
peptide: FYHSKRRLI-NH2
B5: FYHSKRRL-NH2 (peptide)
peptide: FYHSKRRL-NH2
B6: FYHSKRR-NH2 (peptide)
peptide: FYHSKRR-NH2
B7: FYHSKR-NH2 (peptide)
peptide: FYHSKR-NH2
B8: p21 (151-159) YHSKRRLIF-NH2 (peptide)
peptide: YHSKRRLIF-NH2
B9: YHSKRRLI-NH2 (peptide)
peptide: YHSKRRLI-NH2
B10: YHSKRRL-NH2 (peptide)
peptide: YHSKRRL-NH2
B11: YHSKRR-NH2 (peptide)
peptide: YHSKRR-NH2
B12: YHSKR-NH2 (peptide)
peptide: YHSKR-NH2
B13: SKRRLIF-NH2 (peptide)
peptide: SKRRLIF-NH2
B14: H-Lys-Arg-Arg-Leu-Ile-Phe-NH2 (peptide)
peptide: H-KRRLIF-NH2
B15: HSKRRLI-NH2 (peptide)
peptide: HSKRRLI-NH2
B16: HSKRRL-NH2 (peptide)
peptide: HSKRRL-NH2
B17: KRRLIFSK-NH2 (peptide)
peptide: KRRLIFSK-NH2
B18: FYHSKRRLIFSK-NH2 (peptide)
peptide: FYHSKRRLIFSK-NH2
B19: P21 C-terminus (S153A) LFG HAKRRLFG-NH2 (peptide)
peptide: HAKRRLFG-NH2
B20: YHSKRRLIFSKR-NH2 (peptide)
peptide: YHSKRRLIFSKR-NH2
B21: HSKRRLIFSKRK-NH2 (peptide)
peptide: HSKRRLIFSKRK-NH2
B22: SKRRLIFSKRKP-NH2 (peptide)
peptide: SKRRLIFSKRKP-NH2
B23: H-His-Ala-Lys-Arg-Arg-Leu-Ile-Leu-NH2 (peptide)
peptide: H-HAKRRLIL-NH2
B24: SMTDFYHSKRRL-NH2 (peptide)
peptide: SMTDFYHSKRRL-NH2
B25: AFYHSKRRLIFS-NH2 (peptide)
peptide: AFYHSKRRLIFS-NH2
B26: DAYHSKRRLIFS-NH2 (peptide)
peptide: DAYHSKRRLIFS-NH2
B27: DFAHSKRRLIFS-NH2 (peptide)
peptide: DFAHSKRRLIFS-NH2
B28: DFYASKRRLIFS-NH2 (peptide)
peptide: DFYASKRRLIFS-NH2
B29: MTDFYHSKRRLI-NH2 (peptide)
peptide: MTDFYHSKRRLI-NH2
B30: DFYHSARRLIFS-NH2 (peptide)
peptide: DFYHSARRLIFS-NH2
B31: DFYHSKARLIFS-NH2 (peptide)
peptide: DFYHSKARLIFS-NH2
B32: DFYHSKRALIFS-NH2 (peptide)
peptide: DFYHSKRALIFS-NH2
B33: DFYHSKRRAIFS-NH2 (peptide)
peptide: DFYHSKRRAIFS-NH2
B34: DFYHSKRRLAFS-NH2 (peptide)
peptide: DFYHSKRRLAFS-NH2
B35: DFYHSKRRLIAS-NH2 (peptide)
peptide: DFYHSKRRLIAS-NH2
B36: DFYHSKRRLIFA-NH2 (peptide)
peptide: DFYHSKRRLIFA-NH2
B37: FYHSKRRLIFS-NH2 (peptide)
peptide: FYHSKRRLIFS-NH2
B38: YHSKRRLIFS-NH2 (peptide)
peptide: YHSKRRLIFS-NH2
B39: HSKRRLIFS-NH2 (peptide)
peptide: HSKRRLIFS-NH2
B40: DFYHSKRRLI-NH2 (peptide)
peptide: DFYHSKRRLI-NH2
B41: DFYHSKRRL-NH2 (peptide)
peptide: DFYHSKRRL-NH2
B42: DFYHSKRR-NH2 (peptide)
peptide: DFYHSKRR-NH2
B43: DFYHSKR-NH2 (peptide)
peptide: DFYHSKR-NH2
B44: DFYHSK-NH2 (peptide)
peptide: DFYHSK-NH2

What was measured:
Experiment in all cases: cell-based or functional assay
CDK4/Cyclin D1 complex = CDK4/Cyclin D1 complex (UniProt P11802 1-303; P24385 1-295)
CDK2/Cyclin E complex [1] = target: T1, CDK2/Cyclin E complex (UniProt P24941 1-298; P24864 1-410)
CDK2/Cyclin E complex [2] = target: T1, CDK2/Cyclin E complex; remark: listed apart in the source
CDK2/cyclin A = CDK2/cyclin A (UniProt P24941 1-298; P20248 1-432)

Chain of CDK4/Cyclin D1 complex (P11802 other isoform, or with tags, fused parts or gaps, chain 1 of 2): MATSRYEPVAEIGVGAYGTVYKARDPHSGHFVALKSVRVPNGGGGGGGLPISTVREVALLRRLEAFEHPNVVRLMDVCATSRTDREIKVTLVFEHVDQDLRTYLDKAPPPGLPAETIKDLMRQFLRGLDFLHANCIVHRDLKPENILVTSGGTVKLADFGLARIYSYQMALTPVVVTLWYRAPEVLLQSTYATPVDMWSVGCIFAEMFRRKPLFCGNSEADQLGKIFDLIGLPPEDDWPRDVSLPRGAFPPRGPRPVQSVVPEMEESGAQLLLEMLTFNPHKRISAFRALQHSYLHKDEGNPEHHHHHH
Chain of CDK4/Cyclin D1 complex (P24385 whole entry, chain 2 of 2): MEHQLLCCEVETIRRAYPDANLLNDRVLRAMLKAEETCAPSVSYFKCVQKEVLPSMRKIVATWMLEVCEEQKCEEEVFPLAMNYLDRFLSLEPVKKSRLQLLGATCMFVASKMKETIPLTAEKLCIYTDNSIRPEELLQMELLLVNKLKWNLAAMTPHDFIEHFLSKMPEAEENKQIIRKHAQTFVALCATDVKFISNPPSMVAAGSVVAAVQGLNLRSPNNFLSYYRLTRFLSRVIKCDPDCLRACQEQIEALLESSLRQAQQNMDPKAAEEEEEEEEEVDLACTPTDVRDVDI

Row | Binder | % Inhibition, cyclin D1/CDK4 kinase (CDK4/Cyclin D1 complex) [%] | % Inhibition, cyclin E/CDK2 kinase (CDK2/Cyclin E complex [1]) [%] | IC50, cyclin E/CDK2 kinase, GST-pRb (CDK2/Cyclin E complex [1]) [µM] | IC50, cyclin D1/CDK4 kinase, GST-pRb (CDK4/Cyclin D1 complex) [µM] | % Inhibition, cyclin E/CDK2 kinase (CDK2/Cyclin E complex [2]) [%] | IC50, cyclin E/CDK2 kinase (CDK2/Cyclin E complex [2]) [nM] | Relative activity, Kinase Inhibition (CDK2/cyclin A kinase assay, pRb substrate, [ATP] = 100 µM) (CDK2/cyclin A)
1 | B1 | 30 | 35 | – | – | – | – | –
2 | B2 | 72 | 85 | 2.2 | – | – | – | –
3 | B3 | 70 | 80 | – | – | – | – | –
4 | B4 | 20 | 45 | – | – | – | – | –
5 | B5 | 20 | 48 | > 200 | – | – | – | –
6 | B6 | 20 | 45 | > 200 | – | – | – | –
7 | B7 | 10 | 20 | – | – | – | – | –
8 | B8 | 70 | 80 | 7 | – | – | – | –
9 | B9 | 15 | 45 | > 200 | – | – | – | –
10 | B10 | 10 | 30 | > 200 | – | – | – | –
11 | B11 | 10 | 40 | – | – | – | – | –
12 | B12 | 10 | 25 | – | – | – | – | –
13 | B13 | 72 | 80 | 7.7 | 54 | – | – | –
14 | B14 | 72 | 80 | 1.1 | > 200 | – | – | –
15 | B15 | 10 | 35 | – | – | – | – | –
16 | B16 | – | 45 | > 200 | – | – | – | –
17 | B17 | 20 | 60 | > 200 | – | – | – | –
18 | B18 | 70 | 70 | 26 | 41 | – | – | –
19 | B19 | – | – | – | – | 82 | 900 | –
20 | B20 | 60 | 80 | 17.6 | 45 | – | – | –
21 | B21 | 80 | 90 | 8.7 | 34 | – | – | –
22 | B22 | 40 | 70 | 46 | – | – | – | –

Row | Binder | % Inhibition, cyclin D1/CDK4 kinase (CDK4/Cyclin D1 complex) [%] | % Inhibition, cyclin E/CDK2 kinase (CDK2/Cyclin E complex [1]) [%] | IC50, cyclin E/CDK2 kinase, GST-pRb (CDK2/Cyclin E complex [1]) [µM] | IC50, cyclin D1/CDK4 kinase, GST-pRb (CDK4/Cyclin D1 complex) [µM] | % Inhibition, cyclin E/CDK2 kinase (CDK2/Cyclin E complex [2]) [%] | IC50, cyclin E/CDK2 kinase (CDK2/Cyclin E complex [2]) [nM] | Relative activity, Kinase Inhibition (CDK2/cyclin A kinase assay, pRb substrate, [ATP] = 100 µM) (CDK2/cyclin A)
23 | B23 | – | – | – | – | – | – | 0.3 relative to H-His-Ala-Lys-Arg-Arg-Leu-Ile-Phe-NH2 (=1)
24 | B24 | 18 | 40 | – | – | – | – | –
25 | B25 | 72 | 70 | 11 | 22 | – | – | –
26 | B26 | 76 | 85 | 5.9 | 37 | – | – | –
27 | B27 | 56 | 80 | 5.3 | 121 | – | – | –
28 | B28 | 60 | 80 | 5.1 | 73 | – | – | –
29 | B29 | 11 | 35 | – | – | – | – | –
30 | B30 | 50 | 80 | 12.9 | 200 | – | – | –
31 | B31 | 30 | 25 | – | – | – | – | –
32 | B32 | 30 | 70 | 30 | – | – | – | –
33 | B33 | 30 | 30 | – | – | – | – | –
34 | B34 | 61 | 80 | 14 | 53 | – | – | –
35 | B35 | 35 | 20 | – | – | – | – | –
36 | B36 | 60 | 70 | 5.4 | 40 | – | – | –
37 | B37 | 70 | 80 | 6.8 | 22 | – | – | –
38 | B38 | 70 | 80 | 7.3 | 20 | – | – | –
39 | B39 | 65 | 80 | 3.4 | 32 | – | – | –
40 | B40 | 20 | 35 | – | – | – | – | –
41 | B41 | 10 | 50 | 200 | – | – | – | –
42 | B42 | 10 | 40 | – | – | – | – | –
43 | B43 | – | 50 | 200 | – | – | – | –
44 | B44 | 10 | 45 | 200 | – | – | – | –
